Values of other authors, collected in PMC3514595.

Target: IL-15Rα (UniProt Q13261)
Sequence of UniProt Q13261 (Q13261 31-205): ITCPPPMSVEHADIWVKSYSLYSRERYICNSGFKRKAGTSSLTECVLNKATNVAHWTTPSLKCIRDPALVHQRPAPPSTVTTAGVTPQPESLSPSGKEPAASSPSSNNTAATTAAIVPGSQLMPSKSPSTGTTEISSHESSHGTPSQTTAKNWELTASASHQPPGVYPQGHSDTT

Substance: IL-15 (from UniProt P40933)
- Kd: 0.038 nM
